# Patent US9988614
# Substitutions are numbered along the chain they refer to.
# Assays:
# [1] = system: T1, BbsI wild type (subunits A and B) (Brevibacillus laterosporus); assay: cleavage_in_vitro; details: NEB4 buffer, relative activity 1; FI=32 in NEB1 (1/2), 120 in NEB2 (1), 64 in NEB3 (1/4); substrate sequence not stated
# T1 sequence 1: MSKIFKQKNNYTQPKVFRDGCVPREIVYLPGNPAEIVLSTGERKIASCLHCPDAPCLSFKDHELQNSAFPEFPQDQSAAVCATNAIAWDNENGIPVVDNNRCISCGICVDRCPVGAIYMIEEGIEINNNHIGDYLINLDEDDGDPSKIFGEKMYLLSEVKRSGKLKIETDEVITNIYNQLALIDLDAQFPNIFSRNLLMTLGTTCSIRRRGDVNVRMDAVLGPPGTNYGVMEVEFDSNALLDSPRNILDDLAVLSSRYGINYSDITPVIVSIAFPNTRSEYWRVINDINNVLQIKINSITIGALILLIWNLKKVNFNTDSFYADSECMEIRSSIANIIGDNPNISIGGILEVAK
# T1 sequence 2: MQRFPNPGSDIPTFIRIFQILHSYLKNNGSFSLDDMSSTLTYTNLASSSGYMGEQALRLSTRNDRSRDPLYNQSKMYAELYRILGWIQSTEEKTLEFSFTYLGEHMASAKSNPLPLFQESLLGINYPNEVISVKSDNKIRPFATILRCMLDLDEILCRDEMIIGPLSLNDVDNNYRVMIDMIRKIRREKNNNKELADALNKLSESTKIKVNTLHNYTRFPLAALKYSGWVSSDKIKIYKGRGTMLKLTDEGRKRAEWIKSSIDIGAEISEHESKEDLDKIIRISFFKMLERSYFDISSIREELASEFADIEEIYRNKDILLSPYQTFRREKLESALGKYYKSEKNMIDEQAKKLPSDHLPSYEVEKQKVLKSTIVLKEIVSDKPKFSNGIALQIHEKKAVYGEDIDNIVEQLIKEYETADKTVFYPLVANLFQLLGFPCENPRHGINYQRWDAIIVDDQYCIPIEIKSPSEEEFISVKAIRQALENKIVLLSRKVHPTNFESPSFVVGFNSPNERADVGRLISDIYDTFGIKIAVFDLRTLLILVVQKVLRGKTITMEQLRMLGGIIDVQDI
# [2] = system: T2, BbsI P442A (subunit B variant) P442A (subunit B) (Brevibacillus laterosporus); assay: cleavage_in_vitro; details: NEB4 buffer, relative activity 1; FI>=120 in NEB1 (1/4), >=32 in NEB2 (1/16), >=2 in NEB3 (1/256); reduced star activity
# T2 sequence 1: T1 sequence 1
# T2 sequence 2: T1 sequence 2 with P442A
substance,measurement,setting,value
DNA substrate containing BbsI recognition site,activity (fidelity index),[1],64
same,activity (fidelity index),[2],> 500
